Consider 1 substance from IntAct's records for PubMed 12730685.

The target in this assay is mgn_human MAGOH (UniProt P61326).

As for “RNA-binding protein 8A (Homo sapiens) (from UniProt Q9Y5S9) L118R”, the “effect of a mutation on the interaction” value is listed as “decreasing interaction”.
